# Laboratory results taken from patent publication US20250025561A1, “LIQUID COMPOSITIONS COMPRISING A PHOSPHORYLCHOLINE-TUFTSIN CONJUGATE” (Tarsier Pharma Ltd., priority 2021, published 2025).
# *1 amine or outer side, *2 acyl side, *3 side chain or, on linkers, in order; H or OH if unused. Where a SMILES comes first, the peptide text is derived from it. [ ]: non-standard residue; d: D form. X1 = C[N+](C)(C)CCOP(=O)([O-])Oc1ccc(/N=N/c2cc(C[C@H](N[*:1])C(=O)[*:2])ccc2O)cc1; X2 = C[N+](C)(C)CCOP(=O)(O)Oc1ccc(/N=N\c2cc(CC(N[*:1])C(=O)[*:2])ccc2O)cc1; NMeT = CN[CH](C(=O)O)[CH](C)O
# How the values were obtained:
# [1] = Biological activity (test not specified)
# [2] = Chemical stability of the synthesized conjugates; format: physicochemical
# Description: In brief, 50 mg of TRS was dissolved in 2.5 mL of water and 50 equivalents of acetaldehyde were added (at room temperature). Then, the pH was adjusted to 6.8. The solution was shaken over the weekend and analyzed by an analytical HPLC. […] The reaction mixture was purified by a preparative HPLC, to isolate the phosphorylcholine tuftsin conjugate of Formula 3A.
# The phosphorylcholine tuftsin conjugate of Formula 3A was dissolved in 0.1% formic acid in water and the pH was adjusted to 2.7. After 30 min, the solution was lyophilized. The crude reaction mixture was purified by preparative HPLC to obtain the phosphorylcholine tuftsin conjugate of Formula 2A.
# yeasts (S. cerevisiae) = assay: Yeast fermentation activity (gas formation) in aqueous suspension with sucrose; format: cell-based; settings: FIG. 2
# Description: Yeast fermentation activity was correlated to the formation of bubbles within the aqueous suspension.
# In brief, varying amount of 1% w/w solution of TRS was added to an aqueous suspension containing yeasts (S. cerevisiae) and a sufficient amount of sucrose, to obtain aqueous compositions containing 4 ppm, 20 ppm, 40 ppm, and 80 ppm of TRS. The gas formation (fermentation activity) of the aqueous suspension with TRS (hereinafter, “the sample”) was quantified by evaluating the volume of the released gas and compared to a similar aqueous yeast suspension devoid of TRS (hereinafter, “the control”).
# Further, the phosphorylcholine tuftsin conjugate (PC) of Formula 2A synthesized as disclosed herein, has been tested to evaluate its antifungal activity. The inventors performed a similar experiment, as disclosed above, using varying concentrations of the phosphorylcholine tuftsin conjugate of Formula 2 (i.e. 6.7 ppm, 20 ppm, 40 ppm, and 80 ppm).
# [3] = Solubility of drug substance in water; format: physicochemical
# Description: Drug Substance [TRS]: is a trifluoroacetate [TFA] salt of phosphorylcholine-tuftsin conjugate represented by Formula 1 (as shown herein). Molecular formula: C43H68N13O13P, Appearance: Yellow to orange solid. Solubility: >40 mg/ml in water.
smiles,measurement,setting,value
CC1NC([C@@H](C)O)C(=O)N1[C@@H](CCCCN)C(=O)N1CCCC1C(=O)N[C@@H](CCCNC(=N)N)CNCC(=O)N[C@@H](Cc1ccc(O)c(/N=N\c2ccc(OP(=O)(O)OCC[N+](C)(C)C)cc2)c1)C(=O)O (stereo partly shown) [Formula 2A],biological activity,[1],solid biological activity
same,chemical stability,[2],sufficient chemical stability
CC(O)C1NC(C)N(C(CCCCN)C(=O)N2CCCC2C(=O)NC(CCCNC(=N)N)C(=O)NCC(=O)NC(Cc2ccc(O)c(N=Nc3ccc(OP(=O)(O)OCC[N+](C)(C)C)cc3)c2)C(=O)O)C1=O (stereo not shown) [Formula 2],yeast activity vs control,yeasts (S. cerevisiae); 80 ppm,almost completely eliminated
same,yeast activity vs control,yeasts (S. cerevisiae); lowest concentration of about 7 ppm (6.7 ppm),significant reduction of the yeast activity
C/C=N/CCCC[C@@H](C(=O)N1CCCC1C(=O)N[C@@H](CCCNC(=N)N)CNCC(=O)N[C@@H](Cc1ccc(O)c(/N=N/c2ccc(OP(=O)(O)OCC[N+](C)(C)C)cc2)c1)C(=O)O)N1C(=O)C([C@@H](C)O)NC1C (stereo partly shown) [Formula 3A],hydrolysis (converted into PC of Formula 2A),[2]; at acidic pH,undergoes hydrolysis
CNC(C(=O)NC(CCCCN)C(=O)N1CCCC1C(=O)NC(CCCNC(=N)N)C(=O)NCC(=O)NC(Cc1ccc(O)c(/N=N\c2ccc(OP(=O)(O)OCC[N+](C)(C)C)cc2)c1)C(=O)O)C(C)O (stereo not shown) [Formula 5] (H-[NMeT]KPRG[X2]-OH; configuration not given here),chemical stability as compared to PC of Formula 2,[2],reduced chemical stability
C[C@@H](O)[C@H](N)C(=O)N[C@@H](CCCCN)C(=O)N1CCC[C@H]1C(=O)N[C@@H](CCCNC(=N)N)C(=O)NCC(=O)N[C@@H](Cc1ccc(O)c(/N=N/c2ccc(OP(=O)([O-])OCC[N+](C)(C)C)cc2)c1)C(=O)O [TRS] (H-TKPRG[X1]-OH),solubility,[3],> 40 mg/mL
